Source: patent publication US20250277032A1

Legend:
[1] = biological target: human ILT3 on the cell surface (recombinant human ILT3 exogenously overexpressed on HEK cells; ILT3 on THP-1 cells, DCs, macrophages) (human) (UniProt Q8NHJ6); assay: flow cytometry on HEK cells overexpressing recombinant human ILT3
[2] = biological target: human ILT3 on the cell surface (recombinant human ILT3 exogenously overexpressed on HEK cells; ILT3 on THP-1 cells, DCs, macrophages) (human) (UniProt Q8NHJ6); assay: cell-based or functional assay

fibronectin (FN1), P02751 32-2477 (ligand), sequence (P02751 32-2477 limits assumed): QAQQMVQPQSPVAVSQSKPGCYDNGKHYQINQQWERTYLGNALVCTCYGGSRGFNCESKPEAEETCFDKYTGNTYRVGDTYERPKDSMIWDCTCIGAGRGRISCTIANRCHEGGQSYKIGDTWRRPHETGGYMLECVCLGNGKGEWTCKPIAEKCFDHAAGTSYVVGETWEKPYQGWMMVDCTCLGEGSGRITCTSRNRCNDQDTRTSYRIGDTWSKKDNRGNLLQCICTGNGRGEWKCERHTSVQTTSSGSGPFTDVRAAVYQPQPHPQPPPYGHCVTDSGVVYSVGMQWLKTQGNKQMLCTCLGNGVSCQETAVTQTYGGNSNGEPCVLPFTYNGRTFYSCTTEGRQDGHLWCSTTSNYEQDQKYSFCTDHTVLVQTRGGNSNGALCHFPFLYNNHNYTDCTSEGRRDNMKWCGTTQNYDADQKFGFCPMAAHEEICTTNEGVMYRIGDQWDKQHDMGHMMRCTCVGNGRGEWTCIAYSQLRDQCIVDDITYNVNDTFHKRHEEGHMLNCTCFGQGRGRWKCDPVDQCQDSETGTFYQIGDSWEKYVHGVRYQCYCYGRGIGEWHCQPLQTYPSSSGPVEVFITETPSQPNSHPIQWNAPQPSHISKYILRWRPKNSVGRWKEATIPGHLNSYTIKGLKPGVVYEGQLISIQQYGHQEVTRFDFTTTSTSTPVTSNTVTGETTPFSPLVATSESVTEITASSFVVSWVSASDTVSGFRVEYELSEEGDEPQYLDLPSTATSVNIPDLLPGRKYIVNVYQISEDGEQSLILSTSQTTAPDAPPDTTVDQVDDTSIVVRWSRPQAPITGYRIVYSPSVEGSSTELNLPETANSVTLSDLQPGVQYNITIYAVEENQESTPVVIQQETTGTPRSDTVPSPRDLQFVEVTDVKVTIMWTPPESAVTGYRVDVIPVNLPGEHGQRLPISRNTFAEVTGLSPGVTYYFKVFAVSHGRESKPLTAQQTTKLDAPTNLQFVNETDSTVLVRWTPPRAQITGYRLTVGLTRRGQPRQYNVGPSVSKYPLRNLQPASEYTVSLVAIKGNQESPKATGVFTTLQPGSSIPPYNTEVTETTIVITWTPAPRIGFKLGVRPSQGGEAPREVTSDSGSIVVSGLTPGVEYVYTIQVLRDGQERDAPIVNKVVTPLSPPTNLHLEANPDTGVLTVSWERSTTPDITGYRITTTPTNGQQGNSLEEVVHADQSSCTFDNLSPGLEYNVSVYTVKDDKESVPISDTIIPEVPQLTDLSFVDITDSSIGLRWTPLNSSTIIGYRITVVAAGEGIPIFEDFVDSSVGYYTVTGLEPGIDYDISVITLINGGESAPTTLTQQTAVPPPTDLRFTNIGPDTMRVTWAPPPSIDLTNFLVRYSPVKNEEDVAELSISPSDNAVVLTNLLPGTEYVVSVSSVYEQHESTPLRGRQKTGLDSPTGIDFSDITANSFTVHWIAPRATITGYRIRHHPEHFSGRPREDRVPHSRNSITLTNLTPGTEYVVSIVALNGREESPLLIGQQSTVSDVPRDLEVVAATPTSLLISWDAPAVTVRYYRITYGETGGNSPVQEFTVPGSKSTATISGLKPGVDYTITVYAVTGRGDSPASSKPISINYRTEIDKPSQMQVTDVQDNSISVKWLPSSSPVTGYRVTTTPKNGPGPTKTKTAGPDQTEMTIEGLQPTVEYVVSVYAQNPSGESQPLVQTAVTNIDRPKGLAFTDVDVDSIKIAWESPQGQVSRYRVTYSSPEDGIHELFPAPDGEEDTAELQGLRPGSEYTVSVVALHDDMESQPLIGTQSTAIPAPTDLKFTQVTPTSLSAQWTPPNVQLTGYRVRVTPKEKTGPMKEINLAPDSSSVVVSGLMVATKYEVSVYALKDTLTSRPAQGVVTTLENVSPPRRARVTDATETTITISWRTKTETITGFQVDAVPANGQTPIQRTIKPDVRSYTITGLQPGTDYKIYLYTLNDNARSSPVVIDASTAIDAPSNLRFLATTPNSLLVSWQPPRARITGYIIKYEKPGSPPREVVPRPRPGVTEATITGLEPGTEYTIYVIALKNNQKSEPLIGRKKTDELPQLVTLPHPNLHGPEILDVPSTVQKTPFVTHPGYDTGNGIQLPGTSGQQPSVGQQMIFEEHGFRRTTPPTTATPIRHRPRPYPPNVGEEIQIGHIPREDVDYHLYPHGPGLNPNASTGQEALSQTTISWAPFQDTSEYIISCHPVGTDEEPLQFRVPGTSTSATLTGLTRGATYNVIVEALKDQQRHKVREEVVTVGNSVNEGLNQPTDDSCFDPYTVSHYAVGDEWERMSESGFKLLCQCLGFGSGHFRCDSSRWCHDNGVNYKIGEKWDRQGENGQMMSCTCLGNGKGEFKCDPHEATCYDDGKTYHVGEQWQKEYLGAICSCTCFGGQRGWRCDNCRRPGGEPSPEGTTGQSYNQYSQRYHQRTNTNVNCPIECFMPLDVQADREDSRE

For ZM4.1 (commercial anti-ILT3 antibody), the average fluorescence [1] was 118.

Work on “fibronectin (FN1), P02751 32-2477 (ligand)” yielded a decrease in IL-8 secretion from THP-1 cells activated with immobilized Rituximab [2] of 67%.
